Patent publication US11833164B2, “Methods of treating Fabry disease in patients having a mutation in the GLA gene” (Amicus Therapeutics, Inc., priority 2019, dated 2023)

System: mutant form of α-Gal A expressed in HEK-293 cells
Assay: HEK assay (GLP HEK / Migalastat Amenability Assay): α-Gal A activity in lysates of transiently transfected HEK-293 cells incubated with or without 10 μM migalastat
Format: cell-based, human
Details: for Absolute increase (% WT) / Relative increase: 10 μM migalastat versus baseline; for Baseline α-Gal A activity (% WT): absence of migalastat; for Baseline α-Gal A activity (% WT) / 10 μM migalastat α-Gal A activity (% WT): percentage of baseline wild-type α-Gal A activity; for 10 μM migalastat α-Gal A activity: incubated 5 days with 10 μM migalastat; for 10 μM migalastat α-Gal A activity (% WT): with 10 μM migalastat, 5 days
How it was run: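 Activity reported as 4-MU released (nmol/mg/hr), mean±SEM, from lysates of transiently transfected HEK-293 cells expressing mutant α-Gal A, cultured with or without 10 μM migalastat.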

[1] = lysates of HEK-293 cells transiently transfected with the mutant form, incubated 5 days in absence of migalastat, mean ± SEM
[2] = lysates of HEK-293 cells transiently transfected with the mutant form, mean ± SEM

Molecule	Absolute increase (% WT)	Relative increase	Baseline α-Gal A activity (% WT) (mean ± SEM)	Baseline α-Gal A activity [1] [nmol/mg/h]	10 μM migalastat α-Gal A activity [2] [nmol/mg/h]	10 μM migalastat α-Gal A activity (% WT) (mean ± SEM)	Baseline α-Gal A activity (nmol/mg/hr) [1]
F295V (protein) MQLRNPELHLGCALALRFLALVSWDIPGARALDNGLARTPTMGWLHWERFMCNLDCQEEPDSCISEKLFMEMAELMVSEGWKDAGYEYLCIDDCWMAPQRDSEGRLQADPQRFPHGIRQLANYVHSKGLKLGIYADVGNKTCAGFPGSFGYYDIDAQTFADWGVDLLKFDGCYCDSLENLADGYKHMSLALNRTGRSIVYSCEWPLYMWPFQKPNYTEIRQYCNHWRNFADIDDSWKSIKSILDWTSFNQERIVDVAGPGGWNDPDMLVIGNFGLSWNQQVTQMALWAIMAAPLVMSNDLRHISPQAKALLQDKDVIAINQDPLGKQGYQLRQGDNFEVWERPLSGLAWAVAMINRQEIGGPRSYTIAVASLGKGVACNPACFITQLLPVKRKLGFYEWTSRLRSHINPTGTVLLQLENTMQMSLKDLL	48.0	1.7	73.4 ± 5.7	24973 ± 1752	41782 ± 2877	121.5 ± 7.7	–
F295Y (protein) MQLRNPELHLGCALALRFLALVSWDIPGARALDNGLARTPTMGWLHWERFMCNLDCQEEPDSCISEKLFMEMAELMVSEGWKDAGYEYLCIDDCWMAPQRDSEGRLQADPQRFPHGIRQLANYVHSKGLKLGIYADVGNKTCAGFPGSFGYYDIDAQTFADWGVDLLKFDGCYCDSLENLADGYKHMSLALNRTGRSIVYSCEWPLYMWPFQKPNYTEIRQYCNHWRNFADIDDSWKSIKSILDWTSFNQERIVDVAGPGGWNDPDMLVIGNFGLSWNQQVTQMALWAIMAAPLYMSNDLRHISPQAKALLQDKDVIAINQDPLGKQGYQLRQGDNFEVWERPLSGLAWAVAMINRQEIGGPRSYTIAVASLGKGVACNPACFITQLLPVKRKLGFYEWTSRLRSHINPTGTVLLQLENTMQMSLKDLL	36.3	1.6	62.9 ± 6.1	21452 ± 1929	34502 ± 2504	99.2 ± 6.5	–
S297T (protein) MQLRNPELHLGCALALRFLALVSWDIPGARALDNGLARTPTMGWLHWERFMCNLDCQEEPDSCISEKLFMEMAELMVSEGWKDAGYEYLCIDDCWMAPQRDSEGRLQADPQRFPHGIRQLANYVHSKGLKLGIYADVGNKTCAGFPGSFGYYDIDAQTFADWGVDLLKFDGCYCDSLENLADGYKHMSLALNRTGRSIVYSCEWPLYMWPFQKPNYTEIRQYCNHWRNFADIDDSWKSIKSILDWTSFNQERIVDVAGPGGWNDPDMLVIGNFGLSWNQQVTQMALWAIMAAPLFMTNDLRHISPQAKALLQDKDVIAINQDPLGKQGYQLRQGDNFEVWERPLSGLAWAVAMINRQEIGGPRSYTIAVASLGKGVACNPACFITQLLPVKRKLGFYEWTSRLRSHINPTGTVLLQLENTMQMSLKDLL	9.7	–	–	–	3178 ± 327	9.7 ± 0.8	BLD (“BLD” indicates that the mean α-Gal A activity was below the limit of detection (<142 nmol/mg/hr))
N298D (protein) MQLRNPELHLGCALALRFLALVSWDIPGARALDNGLARTPTMGWLHWERFMCNLDCQEEPDSCISEKLFMEMAELMVSEGWKDAGYEYLCIDDCWMAPQRDSEGRLQADPQRFPHGIRQLANYVHSKGLKLGIYADVGNKTCAGFPGSFGYYDIDAQTFADWGVDLLKFDGCYCDSLENLADGYKHMSLALNRTGRSIVYSCEWPLYMWPFQKPNYTEIRQYCNHWRNFADIDDSWKSIKSILDWTSFNQERIVDVAGPGGWNDPDMLVIGNFGLSWNQQVTQMALWAIMAAPLFMSDDLRHISPQAKALLQDKDVIAINQDPLGKQGYQLRQGDNFEVWERPLSGLAWAVAMINRQEIGGPRSYTIAVASLGKGVACNPACFITQLLPVKRKLGFYEWTSRLRSHINPTGTVLLQLENTMQMSLKDLL	21.7	9.6	2.5 ± 0.2	795 ± 56	7645 ± 388	24.2 ± 1.2	–
N298I (protein) MQLRNPELHLGCALALRFLALVSWDIPGARALDNGLARTPTMGWLHWERFMCNLDCQEEPDSCISEKLFMEMAELMVSEGWKDAGYEYLCIDDCWMAPQRDSEGRLQADPQRFPHGIRQLANYVHSKGLKLGIYADVGNKTCAGFPGSFGYYDIDAQTFADWGVDLLKFDGCYCDSLENLADGYKHMSLALNRTGRSIVYSCEWPLYMWPFQKPNYTEIRQYCNHWRNFADIDDSWKSIKSILDWTSFNQERIVDVAGPGGWNDPDMLVIGNFGLSWNQQVTQMALWAIMAAPLFMSIDLRHISPQAKALLQDKDVIAINQDPLGKQGYQLRQGDNFEVWERPLSGLAWAVAMINRQEIGGPRSYTIAVASLGKGVACNPACFITQLLPVKRKLGFYEWTSRLRSHINPTGTVLLQLENTMQMSLKDLL	34.9	4.7	9.2 ± 0.7	2942 ± 262	13906 ± 535	44.1 ± 1.8	–
N298T (protein) MQLRNPELHLGCALALRFLALVSWDIPGARALDNGLARTPTMGWLHWERFMCNLDCQEEPDSCISEKLFMEMAELMVSEGWKDAGYEYLCIDDCWMAPQRDSEGRLQADPQRFPHGIRQLANYVHSKGLKLGIYADVGNKTCAGFPGSFGYYDIDAQTFADWGVDLLKFDGCYCDSLENLADGYKHMSLALNRTGRSIVYSCEWPLYMWPFQKPNYTEIRQYCNHWRNFADIDDSWKSIKSILDWTSFNQERIVDVAGPGGWNDPDMLVIGNFGLSWNQQVTQMALWAIMAAPLFMSTDLRHISPQAKALLQDKDVIAINQDPLGKQGYQLRQGDNFEVWERPLSGLAWAVAMINRQEIGGPRSYTIAVASLGKGVACNPACFITQLLPVKRKLGFYEWTSRLRSHINPTGTVLLQLENTMQMSLKDLL	14.2	1.2	61.2 ± 4.7	20581 ± 1736	25249 ± 1705	75.4 ± 4.3	–
D299H (protein) MQLRNPELHLGCALALRFLALVSWDIPGARALDNGLARTPTMGWLHWERFMCNLDCQEEPDSCISEKLFMEMAELMVSEGWKDAGYEYLCIDDCWMAPQRDSEGRLQADPQRFPHGIRQLANYVHSKGLKLGIYADVGNKTCAGFPGSFGYYDIDAQTFADWGVDLLKFDGCYCDSLENLADGYKHMSLALNRTGRSIVYSCEWPLYMWPFQKPNYTEIRQYCNHWRNFADIDDSWKSIKSILDWTSFNQERIVDVAGPGGWNDPDMLVIGNFGLSWNQQVTQMALWAIMAAPLFMSNHLRHISPQAKALLQDKDVIAINQDPLGKQGYQLRQGDNFEVWERPLSGLAWAVAMINRQEIGGPRSYTIAVASLGKGVACNPACFITQLLPVKRKLGFYEWTSRLRSHINPTGTVLLQLENTMQMSLKDLL	22.1	23.5	1 ± 0.1	358 ± 36	8424 ± 875	23.1 ± 2.4	–
D299N (protein) MQLRNPELHLGCALALRFLALVSWDIPGARALDNGLARTPTMGWLHWERFMCNLDCQEEPDSCISEKLFMEMAELMVSEGWKDAGYEYLCIDDCWMAPQRDSEGRLQADPQRFPHGIRQLANYVHSKGLKLGIYADVGNKTCAGFPGSFGYYDIDAQTFADWGVDLLKFDGCYCDSLENLADGYKHMSLALNRTGRSIVYSCEWPLYMWPFQKPNYTEIRQYCNHWRNFADIDDSWKSIKSILDWTSFNQERIVDVAGPGGWNDPDMLVIGNFGLSWNQQVTQMALWAIMAAPLFMSNNLRHISPQAKALLQDKDVIAINQDPLGKQGYQLRQGDNFEVWERPLSGLAWAVAMINRQEIGGPRSYTIAVASLGKGVACNPACFITQLLPVKRKLGFYEWTSRLRSHINPTGTVLLQLENTMQMSLKDLL	7.8	1.2	29.2 ± 4.7	11973 ± 1961	14668 ± 809	37.1 ± 2.9	–
L300I (protein) MQLRNPELHLGCALALRFLALVSWDIPGARALDNGLARTPTMGWLHWERFMCNLDCQEEPDSCISEKLFMEMAELMVSEGWKDAGYEYLCIDDCWMAPQRDSEGRLQADPQRFPHGIRQLANYVHSKGLKLGIYADVGNKTCAGFPGSFGYYDIDAQTFADWGVDLLKFDGCYCDSLENLADGYKHMSLALNRTGRSIVYSCEWPLYMWPFQKPNYTEIRQYCNHWRNFADIDDSWKSIKSILDWTSFNQERIVDVAGPGGWNDPDMLVIGNFGLSWNQQVTQMALWAIMAAPLFMSNDIRHISPQAKALLQDKDVIAINQDPLGKQGYQLRQGDNFEVWERPLSGLAWAVAMINRQEIGGPRSYTIAVASLGKGVACNPACFITQLLPVKRKLGFYEWTSRLRSHINPTGTVLLQLENTMQMSLKDLL	34.4	2.6	20.7 ± 0.9	7328 ± 448	19317 ± 757	55.1 ± 2	–
